Patent US20220372155A1 (LYVGEN BIOPHARMA, published 2022)

T1: human B7H4 expressed on CHO cells (human, UniProt Q7Z7D3 25-282)
T1 construct: whole, on cells; also called VCTN1
T1 sequence (looked up): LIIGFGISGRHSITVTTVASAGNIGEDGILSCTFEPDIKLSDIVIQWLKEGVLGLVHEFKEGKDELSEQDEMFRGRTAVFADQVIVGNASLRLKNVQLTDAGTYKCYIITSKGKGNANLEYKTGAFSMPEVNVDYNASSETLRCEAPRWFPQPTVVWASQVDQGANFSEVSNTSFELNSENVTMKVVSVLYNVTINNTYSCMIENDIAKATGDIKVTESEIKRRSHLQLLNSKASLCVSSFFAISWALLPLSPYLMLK


Key:
[1] = target: T2, Human CD40 ECD protein (mouse IgG2a Fc tag) (human, UniProt P25942 21-193); experiment: bridging ELISA, coated B7H3-His, soluble CD40-msFc
T2 construct: extracellular domain; also called Human CD40-msFc; human recombinant CD40; not shown: mouse IgG2a Fc tag
Method: Anti-B7H3/CD40 bi-specific antibodies were analyzed by ELISA for their simultaneous binding to recombinant human B7H3 and human CD40. Briefly, Human B7H3 CD protein (His-tag) was diluted and coated onto an ELISA plate with a volume of […] by incubation at 4° C. overnight. The next day, the plate was blocked with PBST-BSA buffer, then serially diluted samples of anti-B7H3/CD40 bi-specific antibodies were pipetted into appropriate wells at 50 μL/well, and the plate was incubated for 1 h followed by washing. Human CD40-msFc antibody was added into the plate at 50 μL/well. After 1-hour incubation at room temperature, […] anti-Mouse IgG (H+L) antibody was added into the plate at 100 μL/well. The plate was incubated for 1 hour at room temperature followed by washing. TMB substrate solution was added at 100 p L/well and the color development was stopped by adding 100 uUwell Stop Solution (2N H2SO4). Absorbance at 450 nm and 620 nm was read by Tecan F200 Pro plate reader. GraphPad 7.0, “[Agonist] vs. response—Variable slope (four parameters)” was used to plot the binding data and calculate binding EC50 values.

[2] = target: T3, human CD40 expressed on CHO cells (human, UniProt P25942 21-277); experiment: FACS, CHO cells
T3 construct: whole, on cells; also used for the reporter cells over-expressing human CD40; also called cellular CD40; CHO-CD40 cells

[3] = target: T2, Human CD40 ECD protein (mouse IgG2a Fc …); experiment: bridging ELISA, coated B7H4, soluble CD40 ECD-mFc
Method: Anti-B7H4/CD40 bi-specific antibodies were analyzed by ELISA for their simultaneous binding to recombinant human B7H4 and human CD40. Briefly, human B7H4 protein was diluted and coated onto an ELISA plate with a volume of […] by incubation at 4° C. overnight. The next day, the plate was blocked by PBST-BSA buffer, then serially diluted samples of anti-B7H4/CD40 bi-specific antibodies were pipetted into appropriate wells at 50 μL/well, and the plate was incubated for 1 h followed by Washing. Human CD40 ECD protein (mouse IgG2a Fc tag) was added into the plate at 50 μL/well. After 1-hour incubation at room temperature, HRP-conjugated anti-mouse IgG (H+L) antibody was added into the plate at 100 μL/well. The plate was incubated for 1 hour at room temperature followed by washing. TMB substrate solution was added at 100 μL/well and the color development was stopped by adding 100 uL/well Stop Solution (2N H2SO4). Absorbance at 450 nm and 620 nm was read by Tecan F200 Pro plate reader. GraphPad 7.0, “[Agonist] vs. response—Variable slope (four parameters)” was used to plot the binding data and calculate binding EC50 values.

[4] = target: T1, human B7H4 expressed on CHO cells; experiment: FACS, CHO cells
[5] = target: T4, human PD-L1 expressed on CHO cells (human, UniProt Q9NZQ7 19-290); experiment: FACS, CHO cells
T4 construct: whole, on cells; also used for human PD-L1 on Raji cells in the reporter assay; also called cell surface PD-L1; Raji-PD-L1 cells
T4 sequence (Q9NZQ7 19-290): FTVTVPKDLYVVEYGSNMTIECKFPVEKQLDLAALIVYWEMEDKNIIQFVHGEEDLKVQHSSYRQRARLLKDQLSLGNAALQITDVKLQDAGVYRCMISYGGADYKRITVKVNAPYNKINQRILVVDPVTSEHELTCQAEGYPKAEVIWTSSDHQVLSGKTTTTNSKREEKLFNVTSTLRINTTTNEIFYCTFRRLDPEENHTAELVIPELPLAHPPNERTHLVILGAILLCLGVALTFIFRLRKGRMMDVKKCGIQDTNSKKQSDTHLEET

T2 sequence (P25942 21-193): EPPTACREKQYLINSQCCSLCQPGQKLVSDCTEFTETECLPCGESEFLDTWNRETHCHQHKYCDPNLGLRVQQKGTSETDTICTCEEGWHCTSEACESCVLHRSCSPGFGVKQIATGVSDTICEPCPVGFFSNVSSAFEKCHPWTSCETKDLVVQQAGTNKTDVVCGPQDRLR
T3 sequence (P25942 21-277): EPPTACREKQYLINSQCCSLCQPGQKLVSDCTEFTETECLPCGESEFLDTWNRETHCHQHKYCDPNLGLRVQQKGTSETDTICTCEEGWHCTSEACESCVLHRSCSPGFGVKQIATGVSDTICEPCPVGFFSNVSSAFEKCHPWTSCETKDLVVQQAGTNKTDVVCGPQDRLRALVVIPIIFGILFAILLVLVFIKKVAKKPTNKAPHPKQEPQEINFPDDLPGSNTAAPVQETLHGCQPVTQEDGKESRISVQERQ

| Binder | binding result [1] | binding result [2] | binding result [3] | binding result [4] | binding result [5] |
| --- | --- | --- | --- | --- | --- |
| Ly610 (bispecific antibody, human IgG1, kappa, Ly383 HC (IgG1 mutated Fc)-TM740 scFv VL-VH + Ly383 LC) heavy: EVQLQQSGPELVKPGASVKMSCKASGYTFTSYVMHWVKQKPGQGLEWIGYINPYNDGTECTDKFKGKATLTSDKSSSTAYMELSSLTSEDSAVYYCASIYYGYDGTYFGVWGAGTSVTVSSASTKGPSVFPLAPSSKSTSGGTAALGCLVKDYFPEPVTVSWNSGALTSGVHTFPAVLQSSGLYSLSSVVTVPSSSLGTQTYICNVNHKPSNTKVDKKVEPKSCDKTHTCPPCPAPELLGPSVFLFPPKPKDTLMISRTPEVTCVVVDVSHEDPEVKFNWYVDGVEVHNAKTKPREEQYNSTYRVVSVLTVLHQDWLNGKEYKCKVSNKALPAPIEKTISKAKGQPREPQVYTLPPSREEMTKNQVSLTCLVKGFYPSDIAVEWESNGQPENNYKTTPPVLDSDGSFFLYSKLTVDKSRWQQGNVFSCSVMHEALHNHYTQKSLSLSPGGGGGSGGGGSGGGGSGGGGSDIQMTQSPSSLSASVGDRVTITCKASQNIYIYLNWYQQKPGKAPKLLIYNTNNLQTGVPSRFSGSGSGTDFTLTISSLQPEDFATYYCLQHSSRRTFGGGTKVEIKGGGGSGGGGSGGGGSGGGGSQVQLVESGGGLVQPGGSLKLSCATSGFNFNDYFMNWVRQASGKGLEWVGQIRNKNYNYATYYTESLEGRVTISRDDSKNTAYLQMNSLKTEDTAVYYCTSYYYDGFADYFDYWGQGTTVTVSS light: QIVLSQSPAILSTSPGEKVTMTCRASSSVSYMHWYQQKPGSSPKPWIYATSNLASGVPARFSGSRSGTSYSLTISRVEAEDAATYYCQQWSSNTLTFGGGTKLELKRTVAAPSVFIFPPSDEQLKSGTASVVCLLNNFYPREAKVQWKVDNALQSGNSQESVTEQDSKDSTYSLSSTLTLSKADYEKHKVYACEVTHQGLSSPVTKSFNRGEC | binds | binds |  |  |  |
| Ly490 (bispecific antibody, human IgG1, kappa, Ly366 HC (IgG1 mutated Fc)-TM559 scFv VL-VH + Ly366 LC) heavy: EVQLVESGGGLVKPGGSLKLSCAASGFTFSDSGMHWVRQAPEKGLEWITYINSGSSTIYYADSVKGRFTISRDNAKNTLFLQMTSLRSEDTAMYYCARGRGYAMDYWGQGTSVTVSSASTKGPSVFPLAPSSKSTSGGTAALGCLVKDYFPEPVTVSWNSGALTSGVHTFPAVLQSSGLYSLSSVVTVPSSSLGTQTYICNVNHKPSNTKVDKKVEPKSCDKTHTCPPCPAPELLGPSVFLFPPKPKDTLMISRTPEVTCVVVDVSHEDPEVKFNWYVDGVEVHNAKTKPREEQYNSTYRVVSVLTVLHQDWLNGKEYKCKVSNKALPAPIEKTISKAKGQPREPQVYTLPPSREEMTKNQVSLTCLVKGFYPSDIAVEWESNGQPENNYKTTPPVLDSDGSFFLYSKLTVDKSRWQQGNVFSCSVMHEALHNHYTQKSLSLSPGGGGGSGGGGSGGGGSGGGGSDIQMTQSPSSLSASVGDRVTITCLASEDISNDLAWYQQKPGKAPKLLIYFVDRLLDGVPSRFSGSGSGTDFTLTISSLQPEDFATYYCQQSYKYPPTFGQGTKLEIKGGGGSGGGGSGGGGSGGGGSEVQLVESGGGLVQPGGSLRLSCAASGFTFTNYGLHWVRQAPGKGLEWVSSISPSGGVTYYRDSVKGRFTISRDNSKNTLYLQMNSLRAEDTAVYYCAKPFLGWGGANWIAHWGQGTLVTVSS light: EIVLTQSPTTMAASPGEKITIFCSASSSISSDFLHWYQQKPGFSPKLLIYRISNLASGVPARFSGSGSGTSYSLTIGTMEAEDVATYYCQQGSNVPRTFGGGTKLEIKRTVAAPSVFIFPPSDEQLKSGTASVVCLLNNFYPREAKVQWKVDNALQSGNSQESVTEQDSKDSTYSLSSTLTLSKADYEKHKVYACEVTHQGLSSPVTKSFNRGEC |  | binds | binds | binds |  |
| Ly494 (bispecific antibody, human IgG1, kappa, Ly366 HC (IgG1 mutated Fc)-Ly253 scFv VL-VH + Ly366 LC) heavy: not shown light: EIVLTQSPTTMAASPGEKITIFCSASSSISSDFLHWYQQKPGFSPKLLIYRISNLASGVPARFSGSGSGTSYSLTIGTMEAEDVATYYCQQGSNVPRTFGGGTKLEIKRTVAAPSVFIFPPSDEQLKSGTASVVCLLNNFYPREAKVQWKVDNALQSGNSQESVTEQDSKDSTYSLSSTLTLSKADYEKHKVYACEVTHQGLSSPVTKSFNRGEC |  | binds | binds | binds |  |
| Ly491 (bispecific antibody, human IgG1, kappa, Ly366 HC (IgG1 mutated Fc)-TM559 scFv VH-VL + Ly366 LC) heavy: EVQLVESGGGLVKPGGSLKLSCAASGFTFSDSGMHWVRQAPEKGLEWITYINSGSSTIYYADSVKGRFTISRDNAKNTLFLQMTSLRSEDTAMYYCARGRGYAMDYWGQGTSVTVSSASTKGPSVFPLAPSSKSTSGGTAALGCLVKDYFPEPVTVSWNSGALTSGVHTFPAVLQSSGLYSLSSVVTVPSSSLGTQTYICNVNHKPSNTKVDKKVEPKSCDKTHTCPPCPAPELLGPSVFLFPPKPKDTLMISRTPEVTCVVVDVSHEDPEVKFNWYVDGVEVHNAKTKPREEQYNSTYRVVSVLTVLHQDWLNGKEYKCKVSNKALPAPIEKTISKAKGQPREPQVYTLPPSREEMTKNQVSLTCLVKGFYPSDIAVEWESNGQPENNYKTTPPVLDSDGSFFLYSKLTVDKSRWQQGNVFSCSVMHEALHNHYTQKSLSLSPGGGGGSGGGGSGGGGSGGGGSEVQLVESGGGLVQPGGSLRLSCAASGFTFTNYGLHWVRQAPGKGLEWVSSISPSGGVTYYRDSVKGRFTISRDNSKNTLYLQMNSLRAEDTAVYYCAKPFLGWGGANWIAHWGQGTLVTVSSGGGGSGGGGSGGGGSGGGGSDIQMTQSPSSLSASVGDRVTITCLASEDISNDLAWYQQKPGKAPKLLIYFVDRLLDGVPSRFSGSGSGTDFTLTISSLQPEDFATYYCQQSYKYPPTFGQGTKLEIK light: EIVLTQSPTTMAASPGEKITIFCSASSSISSDFLHWYQQKPGFSPKLLIYRISNLASGVPARFSGSGSGTSYSLTIGTMEAEDVATYYCQQGSNVPRTFGGGTKLEIKRTVAAPSVFIFPPSDEQLKSGTASVVCLLNNFYPREAKVQWKVDNALQSGNSQESVTEQDSKDSTYSLSSTLTLSKADYEKHKVYACEVTHQGLSSPVTKSFNRGEC |  | binds | binds | binds |  |
| Ly495 (bispecific antibody, human IgG1, kappa, Ly366 HC (IgG1 mutated Fc)-Ly253 scFv VH-VL + Ly366 LC) heavy: not shown light: EIVLTQSPTTMAASPGEKITIFCSASSSISSDFLHWYQQKPGFSPKLLIYRISNLASGVPARFSGSGSGTSYSLTIGTMEAEDVATYYCQQGSNVPRTFGGGTKLEIKRTVAAPSVFIFPPSDEQLKSGTASVVCLLNNFYPREAKVQWKVDNALQSGNSQESVTEQDSKDSTYSLSSTLTLSKADYEKHKVYACEVTHQGLSSPVTKSFNRGEC |  | binds | binds | binds |  |
| Ly075 (antibody, human IgG1, kappa, V domains shown, humanized LYV5574, VH-1 and VL-1, human IgG1/kappa) VH: QVQLVQSGAEVKKPGASVKVSCKASGYTFTDFWMSWVRQAPGQGLEWMGQIYPNTGTTHSNEKFKGRVTMTRDTSTSTVYMELSSLRSEDTAVYYCARSYHISTTPNWFAYWGQGTLVTVSS VL: DIQMTQSPSSLSASVGDRVTITCKASQNVYKKLEWYQQKPGKVPKLLIYHTNILQTGVPSRFSGSGSGTDFTLTISSLQPEDVATYYCYQWNSGPTFGGGTKVEIKR |  |  |  |  | binds |
| Ly076 (antibody, human IgG1, kappa, V domains shown, humanized LYV5574, VH-1 and VL-2 (L42V, F71Y), human IgG1/kappa) VH: QVQLVQSGAEVKKPGASVKVSCKASGYTFTDFWMSWVRQAPGQGLEWMGQIYPNTGTTHSNEKFKGRVTMTRDTSTSTVYMELSSLRSEDTAVYYCARSYHISTTPNWFAYWGQGTLVTVSS VL: DIQMTQSPSSLSASVGDRVTITCKASQNVYKKLEWYQQKPGKVPKVLIYHTNILQTGVPSRFSGSGSGTDYTLTISSLQPEDVATYYCYQWNSGPTFGGGTKVEIKR |  |  |  |  | binds |
